Source: publication doi:10.1101/2020.07.31.231746

Legend:
Experiment in all cases: flow cytometry on cells
[1] = molecular target: best-characterized ACE2(614) mutant from sort 3.1, yeast surface-displayed (human) (UniProt Q9BYF1)
[2] = molecular target: Y353, yeast surface-displayed ACE2(614) variant from sort 4 (human) (UniProt Q9BYF1)
[3] = molecular target: Y373, yeast surface-displayed ACE2(614) variant from sort 5 (human) (UniProt Q9BYF1)

With “SARS-CoV-2 spike RBD monomer (328-533), 8XHis tag and AviTag, biotinylated (from UniProt P0DTC2 328-533) (domain or fragment)” the Kd [1] was 0.52 nM, the Kd [2] was 0.19 nM and the Kd [3] was 0.12 nM.
